In the supplement of paper PMC9112550, “Optimization of the antimicrobial peptide Bac7 by deep mutational scanning” (BMC Biology, 2022):

Test system: Escherichia coli TOP10
Assay: shrunken log2 fold change of peptide-encoding DNA abundance (4.5 h post-induction vs induction); higher = less antimicrobial activity (less host growth inhibition)
Conditions: time post-induction: 4.5 h; library: site-saturation at positions 5, 18, 19, 20
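Note: peptides expressed intracellularly from a pBAD plasmid library in pooled LB shake-flask culture, induced with 0.3% L-arabinose, DNA abundance read by NGS, three biological replicates, DESeq2 with apeglm shrinkage.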

Sequence | shrunken log2 fold change
RRIRARPPRLPRPRPRPACIPRP | 0.171
RRIRARPPRLPRPRPRPADYPRP | 0.177
RRIRARPPRLPRPRPRPAEVPRP | 0.129
RRIRARPPRLPRPRPRPAGDPRP | 1.01
RRIRARPPRLPRPRPRPAHDPRP | 0.184
RRIRARPPRLPRPRPRPAIIPRP | 0.101
RRIRARPPRLPRPRPRPAKSPRP | 0.061
RRIRARPPRLPRPRPRPALMPRP | 0.534
RRIRARPPRLPRPRPRPANAPRP | 0.301
RRIRARPPRLPRPRPRPANGPRP | 0.109
RRIRARPPRLPRPRPRPAPSPRP | 0.787
RRIRARPPRLPRPRPRPAQGPRP | 0.373
RRIRARPPRLPRPRPRPARWPRP | 0.95
RRIRARPPRLPRPRPRPASKPRP | 0.0747
RRIRARPPRLPRPRPRPATGPRP | 0.318
RRIRARPPRLPRPRPRPATIPRP | 0.496
RRIRARPPRLPRPRPRPATNPRP | 0.317
RRIRARPPRLPRPRPRPATRPRP | 0.487
RRIRARPPRLPRPRPRPATTPRP | 0.681
RRIRARPPRLPRPRPRPAVKPRP | 0.233
RRIRARPPRLPRPRPRPAWDPRP | 0.858
RRIRARPPRLPRPRPRPAWRPRP | 0.649
RRIRARPPRLPRPRPRPCANPRP | 0.102
RRIRARPPRLPRPRPRPCAPPRP | 0.384
RRIRARPPRLPRPRPRPCDTPRP | 0.255
RRIRARPPRLPRPRPRPCDVPRP | 0.212
RRIRARPPRLPRPRPRPCFGPRP | 0.0532

Sequence | shrunken log2 fold change
RRIRARPPRLPRPRPRPCGAPRP | 0.737
RRIRARPPRLPRPRPRPCHCPRP | 0.164
RRIRARPPRLPRPRPRPCHEPRP | -0.055
RRIRARPPRLPRPRPRPCISPRP | 0.0706
RRIRARPPRLPRPRPRPCKEPRP | 0.000506
RRIRARPPRLPRPRPRPCKHPRP | -0.116
RRIRARPPRLPRPRPRPCLEPRP | 0.19
RRIRARPPRLPRPRPRPCLRPRP | 0.0978
RRIRARPPRLPRPRPRPCMPPRP | -0.0783
RRIRARPPRLPRPRPRPCMVPRP | -0.0554
RRIRARPPRLPRPRPRPCMWPRP | 0.117
RRIRARPPRLPRPRPRPCNIPRP | -0.671
RRIRARPPRLPRPRPRPCNMPRP | -0.253
RRIRARPPRLPRPRPRPCNQPRP | -0.253
RRIRARPPRLPRPRPRPCNTPRP | -0.0534
RRIRARPPRLPRPRPRPCQIPRP | -0.486
RRIRARPPRLPRPRPRPCQQPRP | -0.00897
RRIRARPPRLPRPRPRPCTHPRP | -0.182
RRIRARPPRLPRPRPRPCTWPRP | 0.108
RRIRARPPRLPRPRPRPCVNPRP | 0.194
RRIRARPPRLPRPRPRPCWVPRP | 0.237
RRIRARPPRLPRPRPRPCYGPRP | -0.246
RRIRARPPRLPRPRPRPCYPPRP | -0.209
RRIRARPPRLPRPRPRPDDKPRP | -0.112
RRIRARPPRLPRPRPRPDEFPRP | 0.331
RRIRARPPRLPRPRPRPDESPRP | 0.0602
RRIRARPPRLPRPRPRPDGVPRP | 0.971
